# Measurements: paper PMC5520923
# Target: Atg16 (human (endogenous in HCT116 and H1299)) (UniProt Q676U5)
# Assay: co-IP; lysates of HCT116/Shnon and HCT116/ShASPP1 cells (also H1299 with ASPP1 knock-down, Supplementary Figure 3B) immunoprecipitated with anti-Atg16 antibody; co-precipitated proteins detected by western blot
# Sequence of UniProt Q676U5 (Q676U5 whole entry): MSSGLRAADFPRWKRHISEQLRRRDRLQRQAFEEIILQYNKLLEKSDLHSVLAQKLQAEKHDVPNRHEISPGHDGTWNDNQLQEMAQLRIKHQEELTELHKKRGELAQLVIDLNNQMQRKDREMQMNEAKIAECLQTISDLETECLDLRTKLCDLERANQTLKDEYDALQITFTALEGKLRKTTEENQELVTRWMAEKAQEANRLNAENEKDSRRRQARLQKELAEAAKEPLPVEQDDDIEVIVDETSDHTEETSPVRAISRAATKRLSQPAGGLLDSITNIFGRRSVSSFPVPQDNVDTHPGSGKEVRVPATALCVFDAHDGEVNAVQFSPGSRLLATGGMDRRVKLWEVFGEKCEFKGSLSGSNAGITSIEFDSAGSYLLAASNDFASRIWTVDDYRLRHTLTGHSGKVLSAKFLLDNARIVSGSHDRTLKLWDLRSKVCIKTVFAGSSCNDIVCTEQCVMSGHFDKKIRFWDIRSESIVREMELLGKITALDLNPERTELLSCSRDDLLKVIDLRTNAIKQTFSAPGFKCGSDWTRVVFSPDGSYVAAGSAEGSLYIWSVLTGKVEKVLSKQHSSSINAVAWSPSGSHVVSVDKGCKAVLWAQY
substance,measurement,value
Atg5–Atg12 conjugate (from UniProt Q9H1Y0 1-275; O94817 1-140) (complex),"fold increase of Atg5–Atg12 in the Atg16 immunoprecipitate, ASPP1 knock-down against control cells (H1299)",2 fold
same,"fold increase of Atg5–Atg12 in the Atg16 immunoprecipitate, ASPP1 knock-down against control cells (HCT116)",2 fold
